Reference: publication PMC12014896 (2025)

Target: SARS-CoV-2 spike RBD (Wuhan-Hu-1) (Severe acute respiratory syndrome …, UniProt P0DTC2)
Assay: SPR

Row | Binder | Kd [nM]
1 | COVIC-141 (antibody, V domains shown) VH: QVQLQESGPGLVKPSQTLSLTCTVSGGSISSGGYYWSWIRQHPGKGLEWIGYIYYSGNTYYNPSLKSRVTMSVDTSKNQFSLKLTSVTAADTAVYYCASTARPLTNAEYFQHWGQGTLVTVSS VL: DIQLTQSPGTLSLSPGERATLSCRASQSVSSSYLAWYQQKPGQAPRLLIYGTSSRATGIPDRFSGSGSGTDFTLTISRLEPEDFAVYYCQQYRTFGQGTKVEIK | 107
2 | COVIC-63 (antibody) QVQLQESGGGLVQAGGSLRLSCAASGRTFSEYAMGWFRQAPGKEREFVATISWSGGSTYYTDSVKGRFTISRDNAKNTVYLQMNSLKPDDTAVYYCAAAGLGTVVSEWDYDYDYWGQGTQVTVSSGGSGGSQVQLQESGGGLVQAGGSLRLSCAASGRTFSEYAMGWFRQAPGKEREFVATISWSGGSTYYTDSVKGRFTISRDNAKNTVYLQMNSLKPDDTAVYYCAAAGLGTVVSEWDYDYDYWGQGTQVTVSSGGGGSGGGGSEPKSCDKTHTCPPCPAPELLGGKKKPLDGEYFTLQIRGRERFEMFRELNEALELKDAQAGKEPG | 185
3 | COVIC-151 (antibody, V domains shown) VH: QVQLQESGPGLVKPSQTLSLTCTVSGGSISSYGYYWNWIRQHPGKGLEWIGYIYYSGSTYYNPSLKSRVTISVDTSKNQLSLRLNSVSAADTAVYYCARDFGGNSNYFDYWGQGTLVTVSS VL: AIQLTQSPSSLSASVGDRVTITCRTSQGISSALAWYQQKPGKAPKLLIYDASSLESGVPSRFSGSGSGTDFTLTISSLQPEDFATYYCQQFNSYPLTFGGGTKVEIKR | 6.31
4 | COVIC-170 (antibody, V domains shown) VH: EVQLVQSGAEVKKPGESLKISCKGSGYSFTSYWIGWVRQMPGKGLEWMGIIYPGDSDTRYSPSFQGQVTISADKSISTAYLQWSSLKASDTAMYYCVRSYNWNYFDYWGQGTLVTVSS VL: AIQLTQSPSSLSASVGDRVTITCRASQGISSGLAWYQQKAGKAPKLLIYDVSSLESGVPSRFSGSGSGTDFTLTISSLQPEDFATYYCQQFLSYPWTFGQGTKVEIKR | 1.16
5 | COVIC-136 (antibody, V domains shown) VH: EVQLLESGGGLIQPGGSLRLSCAASGFTVSSNYMSWVRQAPGKGLEWVSVIYSGGSTYYADSVKGRFTISRDNSKNTLYLQMNSLRAEDTAVYYCARDHVRPGMNIWGQGTMVTVSS VL: not shown | 9.86
6 | COVIC-322 (antibody) chain 1: EVQLLESGGGLVQPGGSLRLSCAASGRTFSEYAMGWFRQAPGKGLEFVSTISWSGGSTYYADSVKGRFTISRDNSKNTLYLQMNSLRAEDTAVYYCAAAGLGTVVSEWDYDYDYWGQGTLVTVSSGGGGSGGGGSASTKGPSVFPLAPSSKSTSGGTAALGCLVKDYFPEPVTVSWNSGALTSGVHTFPAVLQSSGLYSLSSVVTVPSSSLGTQTYICNVNHKPSNTKVDKKVEPKSCDKTHTAPELLGGPSVFLFPPKPKDTLMISRTPEVTCVVVDVSHEDPEVKFNWYVDGVEVHNAKTKPREEQYNSTYRVVSVLTVLHQDWLNGKEYKCKVSNKALPAPIEKTISKAKGQPREPQVYTLPPSRDELTKNQVSLTCLVKGFYPSDIAVEWESNGQPENNYKTTPPVLDSDGSFFLYSKLTVDKSRWQQGNVFSCSVMHEALHNHYTQKSLSLSPGKKKKPLDGEYFTLQIRGRERFEMFRELNEALELKDAQAGKEPG chain 2: EVQLLESGGGLVQPGGSLRLSCAASGRTFSEYAMGWFRQAPGKGLEFVSTISWSGGSTYYADSVKGRFTISRDNSKNTLYLQMNSLRAEDTAVYYCAAAGLGTVVSEWDYDYDYWGQGTLVTVSSGGGGSGGGGSKRTVAAPSVFIFPPSDEQLKSGTASVVCLLNNFYPREAKVQWKVDNALQSGNSQESVTEQDSKDSTYSLSSTLTLSKADYEKHKVYACEVTHQGLSSPVTKSFNRGEC | 30.2
7 | COVIC-55 (antibody, V domains shown) VH: QVQLQESGGGLVQAGGSLRLSCAASGRTFSEYAMGWFRQAPGKEREFVATISWSGGSTYYTDSVKGRFTISRDNAKNTVYLQMNSLKPDDTAVYYCAAAGLGTVVSEWDYDYDYWGQGTQVTVSS | 115
8 | COVIC-292 (antibody, V domains shown) VH: QMQLVQSGPEVKKPGTSVKVSCKASGFTFSGSAVQWVRQARGQRLEWIGWIVVGSGNTNYAQRFQERVTITRDMSTSTAYMELSSLRSEDTAVYYCAAPYCSSTSCRDGFDIWGQGTMVTVSS VL: not shown | 6.71
9 | COVIC-336 (antibody, V domains shown) VH: QITLKESGPTLVKPTQTLTLTCTFSGFSLSSGGVGVGWIRQPPGKALEWLALIYWDDDKRYRPSLKSRLTITRDTSTNQVVLTMTNMDPVDTATYFCARHQIATVFDHWGQGTLVTVSS VL: QSALTQPASVSGSPGQSITISCTGTSSDVGGYNYVSWYQQHPGKAPKLMIYEVSNRPSGVSSRFSGSKSGNTASLTISGLQAEDEADYYCSSYTRSSPLVAFGGGTKVTVL | 2.14
10 | COVIC-392 (antibody, V domains shown) VH: QVQLLESGGGLVQPGRSLRLSCAASGFTFDDYAMHWVRQPPGKGLEWVSGSSWNSGSVVYADSVKGRFTISRDSAKNSLHLQMNSLRVEDTALYYCAKAVDPTRGSYSPDYGFDIWGQGTMVTVS VL: not shown | 0.0871
11 | COVIC-293 (antibody, V domains shown) VH: QVTLRESGPALVKPTQTLTLTCTFSGFSLSTSGMCVSWIRQPPGKALQWLARIDWDDDKYYSTSLKTRLTISKDTSKNQVVLTVTNVDPVDTGTYYCARVQVAAAGSPYDYWGQGTLVTVSS VL: not shown | 0.429
12 | COVIC-238 (antibody, V domains shown) VH: QVQLVQSGSELKKPGASVKVSCKASGYTFTTYVMNWVRQAPGQGLEWMGWINTNTGNPTYAQGFTGRFVFSLDTSVSTASLQISSLKAEDTAVYYCSSEITTLGGMDVWGQGTTVTVSS VL: ASYVLTQPPSVSVAPGKTARITCGGNNIGSKSVHWYQQKPGQAPVLVIYYDSDRPSGIPERFSGSNSGNTATLTISGVEAGDEADYYCQVWDSISDHRVFGGGTKLTVLG | 0.873
13 | COVIC-393 (antibody, V domains shown) VH: EVQLVQSGGGLVQPGGSLKLSCAASGFTFSGSAMHWVRQASGKGLEWVGHIRSKANSYATAYAASVKGRFTISRDDSKNTAYLQMNSLNTEDTAVYYCTREDIVGVPVAKDWFDPWGQGTLVTVSS VL: not shown | 0.233
14 | COVIC-317 (antibody) EVQLLESGGGLVQPGGSLRLSCAASGRTFSEYAMGWFRQAPGKGLEFVSTISWSGGSTYYADSVKGRFTISRDNSKNTLYLQMNSLRAEDTAVYYCAAAGLGTVVSEWDYDYDYWGQGTLVTVSSGGGGSGGGGSASTKGPSVFPLAPSSKSTSGGTAALGCLVKDYFPEPVTVSWNSGALTSGVHTFPAVLQSSGLYSLSSVVTVPSSSLGTQTYICNVNHKPSNTKVDKKVEPKSCDKTHTAPELLGGPSVFLFPPKPKDTLMISRTPEVTCVVVDVSHEDPEVKFNWYVDGVEVHNAKTKPREEQYNSTYRVVSVLTVLHQDWLNGKEYKCKVSNKALPAPIEKTISKAKGQPREPQVYTLPPSRDELTKNQVSLTCLVKGFYPSDIAVEWESNGQPENNYKTTPPVLDSDGSFFLYSKLTVDKSRWQQGNVFSCSVMHEALHNHYTQKSLSLSPGKKKKPLDGEYFTLQIRGRERFEMFRELNEALELKDAQAGKEPGGGGGSGGGGSEVQLLESGGGLVQPGGSLRLSCAASGRTFSEYAMGWFRQAPGKGLEFVSTISWSGGSTYYADSVKGRFTISRDNSKNTLYLQMNSLRAEDTAVYYCAAAGLGTVVSEWDYDYDYWGQGTLVTVSS | 41.3
15 | COVIC-369 (antibody, V domains shown) VH: EVRLVESGGGLIQPGGSLTLSCAASGVIVSRNYMNWVRQAPGKGLEWVSVIYSGGSTFYADSVKGRFTISRDNSKNTLYLQMNSLRAEDTAVYYCARWGPNYYGSGSDHYNSYGMDVWGQGTTVTVSS VL: EIVLTQSPGTLSLSPGESATLSCRASQGVSSSSLAWYQQRPGQAPRLLMYGASSRATGIPDRFSGSGSGTDFTLTISRLEPEDFAVYYCQQSGSSPQYTFGQGTKLEIKR | 0.209
16 | COVIC-262 (antibody, V domains shown) VH: QVQLVQSGAEVKKPGSSVKVSCKASGGTSSSYAISWVRQAPGQGLEWIGGIIPIFDTTKYAQKFQGRVTITADESTNTAYMEVSSLRSEDTAVYYCAKVADRVGASTGELDYWGQGTLVTVSS VL: EVVLTQSPATLSLSPGERGTLSCRASQSISNYLAWYQQKPGQAPRLLIYNASNRATGVPARFSGSGSGTDFTLTISSLEPEDFAVYYCQQRSNWPPWTFGQGTKVEIKR | 4.67
17 | COVIC-139 (antibody, V domains shown) VH: EVQLVESGGGVVQPGRSLRLSCAASGFTFSSYGMHWVRQAPGKGLEWVAVISYDGSNKYYADSVKGRFTISRDNSKNTLYLQMNSLRAEDTAVYYCANGFGEYYYYAMDVWGQGTTVTVSS VL: NFMLTQPHSVSESPGKTVTISCTGSSGSIASNYVQWYQRRPGSAPTTVIYEDNQRPSGVPDRFSASIDSSSNSASLTISGLKTEDEADYYCQSYDSSNWVFGGGTKLTVL | 44.6
18 | COVIC-294 (antibody, V domains shown) VH: EVQLVESGGGLVQPGGSLRLSCAASGITVSSNYMNWVRQAPGKGLEWVSVIYSGGSTFYADSVKGRFTIARDNSKNTLYLQMNSLRAEDTAVYYCAREGLLVGPTGRGLGMDVWGQGTTVTVSS VL: DIQMTQSPSSLSASVGDRVTITCQASQDINNYLNWYQQKPGKAPKLLIYDASNLQTGVPSRFSGSGSGTDFTFTISSLQPEDIATYYCQQYADLPYTFGQGTKLQIK | 0.0593
19 | COVIC-32 (antibody, V domains shown) VH: QVQLLESGGGLVQPGGSLRLSCAASGFTFSSYAMSWVRQAPGKGLEWASAISGSGGSTYYADSVEGRFTISRDNSKNTLYLQMNSLRAEDTAVYYCAKDTGYCGDDCYIKLIRGGPDYWGQGTLVTVSS VL: DIVMTQSPLSLPVTLGQPASISCRSSQSLVYSDGNTFLNWFQQRPGQSPRRLIYQVSNRDSGVPDRFSGSGSGTDFTLKISRVEAEDVGVYYCMQGTHWPRTFGQGTKLEIK | 1.76
20 | COVIC-156 (antibody, V domains shown) VH: EVQLVESGGGLIQPGGSLRLSCAASGVTVSSNYMNWVRQAPGKGLEWVSVIYSGGSTYYADSVKGRFTISRDNSKNTLFLQMNSLRAEDSAVYYCARDLGPYGVDVWGQGTTVTVSS VL: DIQLTQSPSFLSASVGDRVTITCWASQGISSYLAWYQQKPGKAPKLLIYAASTLQSGVPSRFSGSGSGTEFTLTISSLQPEDFATYYCQELNSYPLTFGQGTRLEIKR | 0.446
21 | COVIC-296 (antibody, V domains shown) VH: EVQLVESGGGLVQPGGSLRLSCAASGITVSSNYMNWVRQAPGKGLEWVSVIYSGGSTFYADSVKGRFTVSRHNSKNTLYLQMNSLRVEDTAVYYCAREGLVGTALAFDYWGQGNLVTVSS VL: DIQMTQSPSSLSASVGDRVTITCRASQSINNYLNWYQQKPGKAPNLLIYAASSLQSGVPSRFSGSGSGTDFTLTINSLQPEDFATYYCQQSYSTPPYTFGQGTKLEIK | 0.501
